Test results published in US7507555B2, “Probe for detecting and quantifying lipid second messenger and method of detecting and quantifying lipid second messenger using the same” (Japan Science and Technology Agency, priority 2003, dated 2009).

How the values were obtained:
[1] = test system: clathrin-mediated endocytosis of PDGFR; experiment: Effect of DynK44A expression on PIP3 increase in CHO-PDGFR cells; format: cell-based, Chinese hamster
Method: To explore the molecular mechanism, which underlies the PIP3 increase in the endomembranes, the effect on the PIP3 increase of a dominant-negative mutant of dynamin (DynK44A), in which the lysine 44 is substituted by an alanine, was assessed.
The dynamin is a guanosine triphosphatase (GTPase) that controls the clathrin-mediated endocytosis (Qualmann, B., Kessels, M. M. and Kelly, R. B. (2000) J. Cell Biol., 150, F111-F116) of receptor tyrosine kinases, including PDGFR. DynK44A lacks the GTPase activity and inhibits a clathrin-mediated endocytosis of PDGFR.
The DynK44A was expressed in CHO-PDCFR cells by adenovirus-mediated gene transfer, the cells were stimulated with PDGF (50 ng/mL) and time course of CFP/YFP in endomembranes was measured as shown in FIG. 11. […] On the other hand, in the plasma membrane, the FRET response of Fllip-pm was immediately observed upon PDGF stimulation even in the presence of the DynK44A expression, as observed in the absence of the DynK44A expression (FIG. 12).

PDGFR = experiment: Effect of PTP1B overexpression on PDGF-stimulated PIP3 increase in CHO-PDGFR cells; format: cell-based, Chinese hamster; settings: PTP1B overexpressed
Text: For further dissecting the PIP3 dynamics in the endomembranes, protein tyrosine phosphatase-1B (PTP1B) was overexpressed in CHO-PDGFR cells by adenovirus-mediated gene transfer. The PTP1B is localized exclusively on the cytoplasmic surface of the ER (Frangioni, J. V., Beaham, P. H., Shifrin, V., Jost, C. A. and Neel, B. G. (1992) Cell, 68, 545-560). It has recently been reported that upon ligand stimulations, receptor tyrosine kinases, including PDGFR, are dephosphorylated and inactivated by the PTP1B on the cytoplasmic surface of the ER after the receptors activated at the cell surface were internalized by endocytosis (Haj, F. G., Verveer, P. J., Squire, A., Neel, B. G. and Bastiaens, P. I. H. (2002), Science, 295, 1708-1711).
The inventors expected the overexpressed PTP1B to selectively dephosphorylate the endocytosed PDGFR and to inhibit the recruitment and activation of PI3K by the PDGFR on the cytoplasmic surface of ER, without affecting the PDCFR in the plasma membrane.

B1: DynK44A: dominant-negative mutant of dynamin in which the lysine 44 is substituted by an alanine (protein, UniProt Q05193 1-864, looked up, variant K44A)
Dynamin-1: MGNRGMEDLIPLVNRLQDAFSAIGQNADLDLPQIAVVGGQSAGASSVLENFVGRDFLPRGSGIVTRRPLVLQLVNATTEYAEFLHCKGKKFTDFEEVRLEIEAETDRVTGTNKGISPVPINLRVYSPHVLNLTLVDLPGMTKVPVGDQPPDIEFQIRDMLMQFVTKENCLILAVSPANSDLANSDALKVAKEVDPQGQRTIGVITKLDLMDEGTDARDVLENKLLPLRRGYIGVVNRSQKDIDGKKDITAALAAERKFFLSHPSYRHLADRMGTPYLQKVLNQQLTNHIRDTLPGLRNKLQSQLLSIEKEVEEYKNFRPDDPARKTKALLQMVQQFAVDFEKRIEGSGDQIDTYELSGGARINRIFHERFPFELVKMEFDEKELRREISYAIKNIHGIRTGLFTPDMAFETIVKKQVKKIREPCLKCVDMVISELISTVRQCTKKLQQYPRLREEMERIVTTHIREREGRTKEQVMLLIDIELAYMNTNHEDFIGFANAQQRSNQMNKKKTSGNQDEILVIRKGWLTINNIGIMKGGSKEYWFVLTAENLSWYKDDEEKEKKYMLSVDNLKLRDVEKGFMSSKHIFALFNTEQRNVYKDYRQLELACETQEEVDSWKASFLRAGVYPERVGDKEKASETEENGSDSFMHSMDPQLERQVETIRNLVDSYMAIVNKTVRDLMPKTIMHLMINNTKEFIFSELLANLYSCGDQNTLMEESAEQAQRRDEMLRMYHALKEALSIIGDINTTTVSTPMPPPVDDSWLQVQSVPAGRRSPTSSPTPQRRAPAVPPARPGSRGPAPGPPPAGSALGGAPPVPSRPGASPDPFGPPPQVPSRPNRAPPGVPSRSGQASPSRPESPRPPFDL
PIP3 increase in the endomembranes by insulin and epidermal growth factor ([1]; DynK44A overexpression): inhibited | PDGF-stimulated PIP3 increase in the endomembranes ([1]; overexpression of DynK44A, PDGF 50 ng/mL): completely inhibited | PDGF-stimulated PIP3 increase in the plasma membrane ([1]; overexpression of DynK44A, PDGF 50 ng/mL, Fllip-pm): not affected

B2: PTP1B: protein tyrosine phosphatase-1B, overexpressed by adenovirus-mediated gene transfer (protein, UniProt P18031 1-435, looked up)
Tyrosine-protein phosphatase …: MEMEKEFEQIDKSGSWAAIYQDIRHEASDFPCRVAKLPKNKNRNRYRDVSPFDHSRIKLHQEDNDYINASLIKMEEAQRSYILTQGPLPNTCGHFWEMVWEQKSRGVVMLNRVMEKGSLKCAQYWPQKEEKEMIFEDTNLKLTLISEDIKSYYTVRQLELENLTTQETREILHFHYTTWPDFGVPESPASFLNFLFKVRESGSLSPEHGPVVVHCSAGIGRSGTFCLADTCLLLMDKRKDPSSVDIKKVLLEMRKFRMGLIQTADQLRFSYLAVIEGAKFIMGDSSVQDQWKELSHEDLEPPPEHIPPPPRPPKRILEPHNGKCREFFPNHQWVKEETQEDKDCPIKEEKGSPLNAAPYGIESMSQDTEVRSRVVGGSLRGAQAASPAKGEPSLPEKDEDHALSYWKPFLVNMCVATVLTAGAYLCYRFLFNSNT
PDGF-stimulated PIP3 increase in endomembranes (PDGFR; Fllip-em, PDGF 50 ng/mL): completely lost | PIP3 increase in the plasma membrane upon PDGF stimulation (PDGFR; monitored with Fllip-pm): not affected
